The values below come from patent US20110311446A1 (DYAX, published 2011).

Experiment [1] has as its target T1, cMet-Fc fusion protein (human, UniProt P08581 25-932).
T1 construct: extracellular domain; also called soluble cMet-Fc fusion protein; cMet-Fc (R&D Systems); not shown: Fc part, not described
Briefly: phage protein ELISA, cMet-Fc vs TRAIL-Fc. On the procedure:
Protein phage ELISAs using peptide-displaying phage isolates from the various selection campaigns were performed to determine specificity of the peptides for cMet versus an unrelated Fc-fusion protein (TRAIL-Fc). Briefly, 384-well plates were coated overnight at 4 C with 0.5 μg/mL of cMet-Fc fusion protein or TRAIL-Fc fusion protein (background). The plates were blocked for 2 hours 37 C with 3% (w/v) BSA in PBS containing 0.05% (v/v) Tween-20 (PBST). The plates were washed with PBST and 100 μL of peptide-displaying phage were added to each well. The plates were incubated for 2 hours at room temperature and washed with PBST. cMet-binding peptide-displaying phage were detected using an HRP-conjugated anti-M13 antibody.
A general note: ELISA stands for enzyme-linked immunosorbent assay.

For the next experiment, the target named is T2, human cMet on 3T3 cells (human, UniProt P08581 25-1390).
T2 construct: whole, on cells; also called cell surface-expressed human cMet
Briefly: phage whole cell ELISA, 3T3 human cMet vs 3T3. The method, then: Whole cell ELISAs were performed using 3T3 cells that over-express human cMet. […] Briefly, 96-well plates were seeded with 10⁵ cells per well. The plates were centrifuged for 5 minutes at 1600 rpm to pellet the cells. The resulting cell layer was fixed with 0.1% (v/v) glutaraldehyde for 12 minutes at 37 C. […] Peptide-displaying phage also were blocked in the above solution for 1 hour at 37 C. 100 μL of blocked phage was then added to each well and the plates were incubated for 1 hour at room temperature. The plates were washed with PBST. cMet-binding peptide-displaying phage were detected using an HRP-conjugated anti-M13 antibody.

Experiment [2] deals with T1, cMet-Fc fusion protein. Briefly: phage ELISA on cMet-Fc, competitor HGF 100 ng/mL. The method, then:
(§1) These assays were conducted using the peptide-displaying phage discovered from the initial selection and screening campaigns using the first generation peptide libraries. Briefly, 96-well plates were coated overnight at 4 C with 0.5 μg/mL of cMet-Fc fusion protein or TRAIL-Fc fusion protein (background). The plates were blocked for 2 hours at 37 C with 3% BSA in PBST. […] This was followed by an addition of 30 μL of peptide-displaying phage overnight culture to each well. The plates were incubated for 2 hours at room temperature, washed with PBST and cMet-binding peptide-displaying phage was detected using an HRP-conjugated anti-M13 antibody.

Experiment [3] deals with T1, cMet-Fc fusion protein. Briefly: phage ELISA on cMet-Fc, competitor HGF 500 ng/mL. On the procedure:
as §1

T2 sequence (P08581 25-1390): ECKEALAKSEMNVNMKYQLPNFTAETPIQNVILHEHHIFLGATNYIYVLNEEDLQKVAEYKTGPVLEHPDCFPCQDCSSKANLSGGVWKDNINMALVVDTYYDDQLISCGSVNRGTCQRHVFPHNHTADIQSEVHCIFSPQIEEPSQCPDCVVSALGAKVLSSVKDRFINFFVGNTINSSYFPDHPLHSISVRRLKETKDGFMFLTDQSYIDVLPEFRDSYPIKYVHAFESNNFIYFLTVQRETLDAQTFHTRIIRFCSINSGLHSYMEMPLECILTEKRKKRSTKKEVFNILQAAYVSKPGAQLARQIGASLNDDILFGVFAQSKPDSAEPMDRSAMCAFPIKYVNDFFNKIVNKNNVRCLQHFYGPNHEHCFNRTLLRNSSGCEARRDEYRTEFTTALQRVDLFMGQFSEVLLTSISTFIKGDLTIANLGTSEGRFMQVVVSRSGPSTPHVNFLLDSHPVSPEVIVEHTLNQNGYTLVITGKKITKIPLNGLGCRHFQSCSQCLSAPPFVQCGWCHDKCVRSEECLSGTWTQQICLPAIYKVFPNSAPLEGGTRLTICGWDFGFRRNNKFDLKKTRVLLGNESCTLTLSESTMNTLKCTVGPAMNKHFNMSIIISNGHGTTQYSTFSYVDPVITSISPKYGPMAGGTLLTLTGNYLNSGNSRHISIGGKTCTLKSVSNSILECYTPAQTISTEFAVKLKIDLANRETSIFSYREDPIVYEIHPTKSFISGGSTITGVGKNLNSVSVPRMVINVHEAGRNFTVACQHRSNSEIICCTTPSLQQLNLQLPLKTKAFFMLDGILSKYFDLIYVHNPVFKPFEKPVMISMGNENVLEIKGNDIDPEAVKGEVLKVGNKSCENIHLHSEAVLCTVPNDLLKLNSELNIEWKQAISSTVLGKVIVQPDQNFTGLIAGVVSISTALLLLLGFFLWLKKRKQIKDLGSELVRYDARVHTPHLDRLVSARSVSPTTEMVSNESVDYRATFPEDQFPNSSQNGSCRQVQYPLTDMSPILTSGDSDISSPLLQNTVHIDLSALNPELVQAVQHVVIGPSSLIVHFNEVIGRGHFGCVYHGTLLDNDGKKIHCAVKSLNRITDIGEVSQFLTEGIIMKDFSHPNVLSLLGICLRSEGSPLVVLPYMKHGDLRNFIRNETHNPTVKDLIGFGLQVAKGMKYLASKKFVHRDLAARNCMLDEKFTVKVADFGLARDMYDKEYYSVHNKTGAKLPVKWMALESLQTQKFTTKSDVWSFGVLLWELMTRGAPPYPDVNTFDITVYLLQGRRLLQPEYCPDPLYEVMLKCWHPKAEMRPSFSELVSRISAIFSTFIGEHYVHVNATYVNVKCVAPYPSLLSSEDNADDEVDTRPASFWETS
T1 sequence (P08581 25-932): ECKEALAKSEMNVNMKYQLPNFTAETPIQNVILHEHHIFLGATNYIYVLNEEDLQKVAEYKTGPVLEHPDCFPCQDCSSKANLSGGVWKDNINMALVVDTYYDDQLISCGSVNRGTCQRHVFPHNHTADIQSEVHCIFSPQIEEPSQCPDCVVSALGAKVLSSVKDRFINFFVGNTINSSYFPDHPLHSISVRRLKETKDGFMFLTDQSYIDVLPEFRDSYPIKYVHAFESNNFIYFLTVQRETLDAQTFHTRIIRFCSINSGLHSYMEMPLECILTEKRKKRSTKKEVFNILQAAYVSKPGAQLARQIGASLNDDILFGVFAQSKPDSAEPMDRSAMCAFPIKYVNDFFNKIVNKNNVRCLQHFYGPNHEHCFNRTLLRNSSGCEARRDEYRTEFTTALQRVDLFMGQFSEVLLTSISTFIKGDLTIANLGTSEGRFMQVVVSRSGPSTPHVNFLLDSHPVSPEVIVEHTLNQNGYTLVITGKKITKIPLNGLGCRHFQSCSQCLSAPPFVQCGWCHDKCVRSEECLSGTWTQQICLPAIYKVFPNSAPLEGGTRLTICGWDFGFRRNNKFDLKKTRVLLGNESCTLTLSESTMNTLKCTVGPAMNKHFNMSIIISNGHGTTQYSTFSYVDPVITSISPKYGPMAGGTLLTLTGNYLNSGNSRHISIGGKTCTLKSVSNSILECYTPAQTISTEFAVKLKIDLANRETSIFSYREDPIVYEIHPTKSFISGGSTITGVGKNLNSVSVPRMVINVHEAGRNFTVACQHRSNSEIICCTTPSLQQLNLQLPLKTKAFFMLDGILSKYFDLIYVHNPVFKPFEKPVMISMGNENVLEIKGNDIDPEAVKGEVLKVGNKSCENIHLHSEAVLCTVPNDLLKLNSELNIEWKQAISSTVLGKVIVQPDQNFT

GSHHTCLDGFAGWRCTEVAP (on M13 phage) [peptide-displaying phage 546-E02] yielded a fold over background with cMet-Fc fusion protein [1] of 40.4 fold.

In turn, AGFWDCGWMMQDCHMHGT (on M13 phage) [peptide-displaying phage 470-C02] registered a fold over background with cMet-Fc fusion protein [1] of 36.9 fold.

AQFDRYWHFAWMDVSFSSGQSG (on M13 phage) [peptide-displaying phage 92-B05]: the fold over background with human cMet on 3T3 cells turned out to be 1.23 fold.

AGYSVCKGYPSFECAFFGT (on M13 phage) [peptide-displaying phage 336-D07] showed a fold over background with human cMet on 3T3 cells of 14.3 fold.

As for AQDPGFSKHSMGHGYPSKMNWG (on M13 phage) [peptide-displaying phage 115-G02], the “% of binding in the absence of HGF” value in the experiment with cMet-Fc fusion protein [2] worked out at 57%.

As for GSMLGCLFEHQNKYDCYVLAP (on M13 phage) [peptide-displaying phage 443-D04], the fold over background in the experiment with cMet-Fc fusion protein [1] is 3 fold.

For the molecule AGETFCSGWPTFECMQWGT (on M13 phage) [peptide-displaying phage 547-H03], in the experiment with cMet-Fc fusion protein [3], the “% of binding in the absence of HGF” value came to 43%.

In the case of AGQFYCSGPPTFQCIMIGT [peptide-displaying phage 550-F11], the % of binding in the absence of HGF with cMet-Fc fusion protein [3] stood at 23%; with cMet-Fc fusion protein [2], 58%. The fold over background with human cMet on 3T3 cells was found to be 1.23 fold; with cMet-Fc fusion protein [1], 1.4 fold.

GSGDPCSPGPSINGHCSVMAP (on M13 phage) [peptide-displaying phage 453-A05]: in the experiment with cMet-Fc fusion protein [2], the “% of binding in the absence of HGF” value worked out at 514%.

For AGETVCYWLNGWFCVDDGT (on M13 phage) [peptide-displaying phage 274-B07], the “% of binding in the absence of HGF” value in the experiment with cMet-Fc fusion protein [2] was 343%.

With GDLLVCKFDDKFWTETCEWADP (on M13 phage) [peptide-displaying phage 549-G05], the fold over background with human cMet on 3T3 cells was found to be 14.5 fold.

In the experiment with human cMet on 3T3 cells, AGLPKCSGPPWFSCYYGGT (on M13 phage) [peptide-displaying phage 545-A09] displayed a fold over background of 1.36 fold.
